{"source": "patent US20220002389A1", "about": "(IMMUNO BIOLOGICAL LABORATORIES, published 2022)", "binders": {"B1": {"name": "Bcell-1C10 (1C10 antibody of B cell origin) (antibody, human IgG1, kappa, V domains shown)", "VH": "EVQLVESGGGVVQPGRSLRVSCVASGFMFSNYAMHWVRQTAGKGLEWVAIISNDGSDKYYADSVQGRFTVSRDNSQNTLFLQMSGLRPEDSGLYYCARDLDQTIPDLTAPAFEVWGQGTMVTVSS", "VL": "DIVMTQSPLSLAVTPGEPASISCRSSQSLLHSDGNNYLDWYLQKPGQSPQLLIYLTSNRASGVPDRFSGSGSGTDFTLKISRVEAEDVGVYFCMQSLQTWTFGQGTKVEIKR"}, "B2": {"name": "CHO-1C10 (1C10 antibody produced in ExpiCHO-S cells) (antibody, human IgG1, kappa, V domains shown)", "VH": "EVQLVESGGGVVQPGRSLRVSCVASGFMFSNYAMHWVRQTAGKGLEWVAIISNDGSDKYYADSVQGRFTVSRDNSQNTLFLQMSGLRPEDSGLYYCARDLDQTIPDLTAPAFEVWGQGTMVTVSS", "VL": "DIVMTQSPLSLAVTPGEPASISCRSSQSLLHSDGNNYLDWYLQKPGQSPQLLIYLTSNRASGVPDRFSGSGSGTDFTLKISRVEAEDVGVYFCMQSLQTWTFGQGTKVEIKR", "modifications": "about 70.3% core fucose-added N-glycan"}}, "target": "HIV-1 BaL strain envelope protein (gp120) on BaL-infected CEM.NKR-CCR5 (NKR24) cells (HIV-1 BaL strain)", "experiment": "cell-based or functional assay"}
{"binder": "B1", "values": [{"measurement": "IC50 (50% inhibitory concentration) of infection of TZM-bl cells by BaL virus, luciferase RLU; 'Dose at Y = 50'", "result": 0.097, "unit": "µg/mL"}]}
{"binder": "B2", "values": [{"measurement": "IC50 (50% inhibitory concentration) of infection of TZM-bl cells by BaL virus, luciferase RLU; 'Dose at Y = 50'", "result": 0.0781, "unit": "µg/mL"}]}
